Experimental findings from the supplement of paper PMC11908140 are described below.

The labels stand for the following.
B1: library; numbered along this chain (parent)
chain: MRKPRAAVGSGHRKQAASQEGRQKHAKNNSQAKPSACDGLARQPEEVVLQASVSSYHLFRDVAEVTAFRGSLLSWYDQEKRDLPWRRRAEDEMDLDRRAYAVWVSEVMLQQTQVATVINYYTGWMQKWPTLQDLASASLEEVNQLWAGLGYYSRGRRLQEGARKVVEELGGHMPRTAETLQQLLPGVGRYTAGAIASIAFGQATGVVDGNVARVLCRVRAIGADPSSTLVSQQLWGLAQQLVDPARPGDFNQAAMELGATVCTPQRPLCSQCPVESLCRARQRVEQEQLLASGSLSGSPDVEECAPNTGQCHLCLPPSEPWDQTLGVVNFPRKASRKPPREESSATCVLEQPGALGAQILLVQRPNSGLLAGLWEFPSVTWEPSEQLQRKALLQELQRWAGPLPATHLRHLGEVVHTFSHIKLTYQVYGLALEGQTPVTTVPPGARWLTQEEFHTAAVSTAMKKVFRVYQGQQPGTCMGSKRSQVSSPCSRKKPRMGQQVLDNFFRSHISTDAHSLNSAAQ
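Also: cells sorted at 72 h after reporter transfection.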

Variants of B1 are the subject of this series. Briefly: 8OG:A repair function score (normalized; synonymous = 0, nonsense = -1) (normalized log-likelihood score); higher = more repair activity (WT-like). Conditions: with 8OG:A DNA repair reporter (GFP) in HEK-293 MUTYH KO cells. A digest of the protocol: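 After 72 h, viable mCherry+ cells were split into GFP+ (repair) and GFP− bins in three replicates per tile. These cells were MUTYH knockout HEK-293 cells holding lentiviral MUTYH cDNA NNN codon-scan libraries, kept in 10 pg/ml doxycycline and co-transfected with mCherry plus an 8OG:A GFP repair reporter. Sequencing of tile amplicons gave per-tile Rosace fitness scores, normalized into a repair function score anchored on synonymous and nonsense distributions. Synonymous medians were fixed at 0, nonsense at -1, and variants under 300 counts per million at the start were removed.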
Turning to MRKPRAAVGSGHRKQAASQEGRQKHAKNNSQAKPSACDGLARQPEEVVLQASVSSYHLFRDVAEVTAFRGSLLSWYDQEKRDLPWRRRAEDEMDLDRRAYAVWVSEVMLQQTQVATVINYYTGWMQKWPTLQDLASASLEEVNQLWAGLGYYSRGRRLQEGARKVVEELGGHMPRTAETLQQLLPGVGRYTAGAIASIAFGQATGVVDGNVARVLCRVRAIGADPSSTLVSQQLWGLAQQLVDPARPGDFNQAAMELGATVCTPQRPLCSQCPVESLCRARQRVEQEQLLASGSLSGSPDVEECAPNTGQCHLCLPPSEPWDQTLGVVNFPRKASRKPPREESSATCVLEQPGALGAQILLVQRPNSGLLAGLWEFPSVPWEPSEQLQRKALLQELQRWAGPLPATHLRHLGEVVHTFSHIKLTYQVYGLALEGQTPVTTVPPGARWLTQEEFHTAAVSTAMKKVFRVYQGQQPGTCMGSKRSQVSSPCSRKKPRMGQQVLDNFFRSHISTDAHSLNSAAQ [T380P], the “8OG:A repair function score” value was -0.128.

As for MRKPRAAVGSGHRKQAASQEGRQKHAKNNSQAKPSACDGLARQPEEVVLQASVSSYHLFRDVAEVTAFRGSLLSWYDQEKRDLPWRRRAEDEMDLDRRAYAVWVSEVMLQQTQVATVINYYTGWMQKWPTLQDLASASLEEVNQLWAGLGYYSRGRRLQEGARKVVEELGGHMPRTAETLQQLLPGVGRYTAGAIASIAFGQATGVVDGNVARVLCRVRAIGADPSSTLVSQQLWGLAQQLVDPARPGDFNQAAMELGATVCTPQRPLCSQCPVESLCRARQRVEQEQLLASGSLSGSPDVEECAPNTGQCHLCLPPSEPWDQTLGVVNFPRKASRKPPREESSATCVLEQPGALGAQILLVQRPNSGLLAGLWEFPSVTDEPSEQLQRKALLQELQRWAGPLPATHLRHLGEVVHTFSHIKLTYQVYGLALEGQTPVTTVPPGARWLTQEEFHTAAVSTAMKKVFRVYQGQQPGTCMGSKRSQVSSPCSRKKPRMGQQVLDNFFRSHISTDAHSLNSAAQ [W381D], the “8OG:A repair function score” value is -0.141.

For the variant MRKPRAAVGSGHRKQAASQEGRQKHAKNNSQAKPSACDGLARQPEEVVLQASVSSYHLFRDVAEVTAFRGSLLSWYDQEKRDLPWRRRAEDEMDLDRRAYAVWVSEVMLQQTQVATVINYYTGWMQKWPTLQDLASASLEEVNQLWAGLGYYSRGRRLQEGARKVVEELGGHMPRTAETLQQLLPGVGRYTAGAIASIAFGQATGVVDGNVARVLCRVRAIGADPSSTLVSQQLWGLAQQLVDPARPGDFNQAAMELGATVCTPQRPLCSQCPVESLCRARQRVEQEQLLASGSLSGSPDVEECAPNTGQCHLCLPPSEPWDQTLGVVNFPRKASRKPPREESSATCVLEQPGALGAQILLVQRPNSGLLAGLWEFPSVTEEPSEQLQRKALLQELQRWAGPLPATHLRHLGEVVHTFSHIKLTYQVYGLALEGQTPVTTVPPGARWLTQEEFHTAAVSTAMKKVFRVYQGQQPGTCMGSKRSQVSSPCSRKKPRMGQQVLDNFFRSHISTDAHSLNSAAQ [W381E], the “8OG:A repair function score” value came to 0.244.

Consider MRKPRAAVGSGHRKQAASQEGRQKHAKNNSQAKPSACDGLARQPEEVVLQASVSSYHLFRDVAEVTAFRGSLLSWYDQEKRDLPWRRRAEDEMDLDRRAYAVWVSEVMLQQTQVATVINYYTGWMQKWPTLQDLASASLEEVNQLWAGLGYYSRGRRLQEGARKVVEELGGHMPRTAETLQQLLPGVGRYTAGAIASIAFGQATGVVDGNVARVLCRVRAIGADPSSTLVSQQLWGLAQQLVDPARPGDFNQAAMELGATVCTPQRPLCSQCPVESLCRARQRVEQEQLLASGSLSGSPDVEECAPNTGQCHLCLPPSEPWDQTLGVVNFPRKASRKPPREESSATCVLEQPGALGAQILLVQRPNSGLLAGLWEFPSVTAEPSEQLQRKALLQELQRWAGPLPATHLRHLGEVVHTFSHIKLTYQVYGLALEGQTPVTTVPPGARWLTQEEFHTAAVSTAMKKVFRVYQGQQPGTCMGSKRSQVSSPCSRKKPRMGQQVLDNFFRSHISTDAHSLNSAAQ [W381A], for which the “8OG:A repair function score” value is 0.0585.

On to MRKPRAAVGSGHRKQAASQEGRQKHAKNNSQAKPSACDGLARQPEEVVLQASVSSYHLFRDVAEVTAFRGSLLSWYDQEKRDLPWRRRAEDEMDLDRRAYAVWVSEVMLQQTQVATVINYYTGWMQKWPTLQDLASASLEEVNQLWAGLGYYSRGRRLQEGARKVVEELGGHMPRTAETLQQLLPGVGRYTAGAIASIAFGQATGVVDGNVARVLCRVRAIGADPSSTLVSQQLWGLAQQLVDPARPGDFNQAAMELGATVCTPQRPLCSQCPVESLCRARQRVEQEQLLASGSLSGSPDVEECAPNTGQCHLCLPPSEPWDQTLGVVNFPRKASRKPPREESSATCVLEQPGALGAQILLVQRPNSGLLAGLWEFPSVTFEPSEQLQRKALLQELQRWAGPLPATHLRHLGEVVHTFSHIKLTYQVYGLALEGQTPVTTVPPGARWLTQEEFHTAAVSTAMKKVFRVYQGQQPGTCMGSKRSQVSSPCSRKKPRMGQQVLDNFFRSHISTDAHSLNSAAQ [W381F], for which the “8OG:A repair function score” value is -0.181.

As to MRKPRAAVGSGHRKQAASQEGRQKHAKNNSQAKPSACDGLARQPEEVVLQASVSSYHLFRDVAEVTAFRGSLLSWYDQEKRDLPWRRRAEDEMDLDRRAYAVWVSEVMLQQTQVATVINYYTGWMQKWPTLQDLASASLEEVNQLWAGLGYYSRGRRLQEGARKVVEELGGHMPRTAETLQQLLPGVGRYTAGAIASIAFGQATGVVDGNVARVLCRVRAIGADPSSTLVSQQLWGLAQQLVDPARPGDFNQAAMELGATVCTPQRPLCSQCPVESLCRARQRVEQEQLLASGSLSGSPDVEECAPNTGQCHLCLPPSEPWDQTLGVVNFPRKASRKPPREESSATCVLEQPGALGAQILLVQRPNSGLLAGLWEFPSVTCEPSEQLQRKALLQELQRWAGPLPATHLRHLGEVVHTFSHIKLTYQVYGLALEGQTPVTTVPPGARWLTQEEFHTAAVSTAMKKVFRVYQGQQPGTCMGSKRSQVSSPCSRKKPRMGQQVLDNFFRSHISTDAHSLNSAAQ [W381C], the “8OG:A repair function score” value is 0.15.
